Test results from patent publication US20090004675A1, “Method of Identifying Compounds for Bacterial Growth Modulation” (priority 2004, published 2009).

What was measured:
S. pyogenes β = test: Binding of rhodamine-labeled polymerase C-terminal peptides to β clamp; set-up: species or system Streptococcus pyogenes; settings: β titrated in
Protocol: This assay has also been examined using Streptococcus pyogenes β and rhodamine labeled peptides corresponding to C-terminal residues of Streptococcus pyogenes Pol C and E. coli Pol III. […] The C-terminal peptide corresponding to Staphylococcus aureus Pol C was also tested for binding to these β clamps (FIG. 1C).

[1] = biological target: E. coli DNA polymerase III replicase (Escherichia coli, UniProt P0A988); settings: primed M13mp18 ssDNA coated with SSB
Protocol: Assays were performed using primed M13mp18 ssDNA coated with SSB as substrate. Each reaction was 25 μl and contained 72 ng primed M13mp18 ssDNA, 1 μg SSB, 0.1 mM MgCl2, 20 mM TrisHCl (pH 7.5), 0.1 mM EDTA, 5 mM DTT, 40 μg/ml BSA, 4% glycerol, […], 2 mM ATP, 60 μM each of dCTP, dATP, dGTP and 20 μM α^32-P dTTP. Replicases consisted of the following for each E. coli, S. pyogenes, and S. aureus: 50 ng Pol III core (E. coli) or Pol C (S. pyogenes and S. aureus), 200 ng τ, 20 ng δδ′ and 40 ng β. Peptides, when present, were added to the indicated concentration. Reactions were assembled on ice in the absence of the polymerase, then shifted to 37° C. for 3 min before initiating synthesis by addition of the polymerase. Reactions were incubated a further 3 min prior to quenching and quantitation of synthesis.

E. coli β clamp = E. coli β clamp (Escherichia coli, UniProt P0A988); settings: E. coli β labeled with Oregon Green or rhodamine-labeled peptide; Kd only in FIG. 1A
From the text: The assays corresponding to the data in the Table of FIG. 1A, use E. coli β labeled with an Oregon Green fluorophore. Peptides of various polymerases were titrated into the labeled β, and the Kd values were obtained from the resulting fluorescent intensity changes. All other plots utilize rhodamine-labeled polymerase peptide from E. coli α (FIG. 1A), S. pyogenes Pol C (FIG. 1B), S. aureus Pol C (FIG. 1C). β clamp from the organisms indicated are titrated into the fluorescent peptide.
A rhodamine-labeled 20 mer peptide corresponds to the sequence of the C-terminal 20 residues of E. coli Pol III α subunit. […] A plot of the fluorescence change with beta concentration provides a Kd value for the interaction between these molecules (FIG. 1A).

[2] = test system: S. pyogenes PolC holoenzyme; test: Replicase DNA synthesis assay on primed M13mp18 ssDNA, with peptides; format: biochemical, Streptococcus pyogenes; settings: primed M13mp18 ssDNA coated with SSB
Protocol: (§1) Peptides, when present, were added to the indicated concentration.

[3] = biological target: T1, S. aureus Pol C holoenzyme (Staphylococcus aureus, UniProt P0A024); test: as above; format: biochemical; settings: primed M13mp18 ssDNA coated with SSB
T1 construct: made in house
T1 sequence (P0A024 1-377): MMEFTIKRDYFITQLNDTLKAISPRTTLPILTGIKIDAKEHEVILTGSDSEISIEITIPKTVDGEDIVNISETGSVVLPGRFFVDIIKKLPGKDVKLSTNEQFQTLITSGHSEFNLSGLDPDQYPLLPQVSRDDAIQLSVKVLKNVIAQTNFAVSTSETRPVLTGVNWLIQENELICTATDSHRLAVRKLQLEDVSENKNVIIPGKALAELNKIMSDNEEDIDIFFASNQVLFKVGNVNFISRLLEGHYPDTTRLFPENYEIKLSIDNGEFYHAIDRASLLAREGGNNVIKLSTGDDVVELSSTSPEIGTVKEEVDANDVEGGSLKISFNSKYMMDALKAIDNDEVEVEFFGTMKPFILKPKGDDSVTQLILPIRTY
Protocol: as §1

E. coli DNA polymerase III replicase, sequence (P0A988 whole entry): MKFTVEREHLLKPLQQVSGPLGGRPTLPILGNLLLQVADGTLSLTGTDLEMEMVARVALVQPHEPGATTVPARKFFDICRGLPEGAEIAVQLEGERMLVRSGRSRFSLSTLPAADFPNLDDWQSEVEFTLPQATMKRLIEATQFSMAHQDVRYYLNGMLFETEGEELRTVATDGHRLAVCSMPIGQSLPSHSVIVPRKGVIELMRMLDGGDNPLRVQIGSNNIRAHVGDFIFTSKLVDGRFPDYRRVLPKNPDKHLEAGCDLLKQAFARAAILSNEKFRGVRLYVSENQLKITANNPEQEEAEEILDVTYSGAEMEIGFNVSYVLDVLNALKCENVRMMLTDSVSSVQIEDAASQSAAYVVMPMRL
E. coli β clamp, sequence (P0A988 whole entry): as above

| Substance | binding of peptide to S. pyogenes β (S. pyogenes β) | inhibition of DNA synthesis by E. coli DNA polymerase III replicase [1] | binding of peptide to E. coli β clamp (E. coli β clamp) | inhibition of DNA synthesis by S. pyogenes PolC holoenzyme [2] | inhibition of DNA synthesis by S. aureus Pol C holoenzyme [3] |
| --- | --- | --- | --- | --- | --- |
| S. aureus Pol C peptide: C-terminal peptide of Staphylococcus aureus Pol C; DELGSLPNLPDKAQLSIFDM (SEQ ID NO: 13) (listed as Staphylococcus aureus) | bound | inhibit DNA synthesis | binds | inhibit DNA synthesis | inhibit DNA synthesis |
| S. pyogenes Pol C peptide: C-terminal residues of Streptococcus pyogenes Pol C; DEMGILGNMPEDNQLSLFDDFF (SEQ ID NO: 15) (Streptococcus pyogenes) | bound | inhibit DNA synthesis | binds | inhibit DNA synthesis | inhibit DNA synthesis |
